The values that follow are results of earlier work, collected in paper PMC11817637.

The target in one data set is RyR1 (UniProt P21817).
The target of data set [1] is RyR1 (Oryctolagus cuniculus) (UniProt P11716).

UniProt P21817, sequence (P21817 whole entry): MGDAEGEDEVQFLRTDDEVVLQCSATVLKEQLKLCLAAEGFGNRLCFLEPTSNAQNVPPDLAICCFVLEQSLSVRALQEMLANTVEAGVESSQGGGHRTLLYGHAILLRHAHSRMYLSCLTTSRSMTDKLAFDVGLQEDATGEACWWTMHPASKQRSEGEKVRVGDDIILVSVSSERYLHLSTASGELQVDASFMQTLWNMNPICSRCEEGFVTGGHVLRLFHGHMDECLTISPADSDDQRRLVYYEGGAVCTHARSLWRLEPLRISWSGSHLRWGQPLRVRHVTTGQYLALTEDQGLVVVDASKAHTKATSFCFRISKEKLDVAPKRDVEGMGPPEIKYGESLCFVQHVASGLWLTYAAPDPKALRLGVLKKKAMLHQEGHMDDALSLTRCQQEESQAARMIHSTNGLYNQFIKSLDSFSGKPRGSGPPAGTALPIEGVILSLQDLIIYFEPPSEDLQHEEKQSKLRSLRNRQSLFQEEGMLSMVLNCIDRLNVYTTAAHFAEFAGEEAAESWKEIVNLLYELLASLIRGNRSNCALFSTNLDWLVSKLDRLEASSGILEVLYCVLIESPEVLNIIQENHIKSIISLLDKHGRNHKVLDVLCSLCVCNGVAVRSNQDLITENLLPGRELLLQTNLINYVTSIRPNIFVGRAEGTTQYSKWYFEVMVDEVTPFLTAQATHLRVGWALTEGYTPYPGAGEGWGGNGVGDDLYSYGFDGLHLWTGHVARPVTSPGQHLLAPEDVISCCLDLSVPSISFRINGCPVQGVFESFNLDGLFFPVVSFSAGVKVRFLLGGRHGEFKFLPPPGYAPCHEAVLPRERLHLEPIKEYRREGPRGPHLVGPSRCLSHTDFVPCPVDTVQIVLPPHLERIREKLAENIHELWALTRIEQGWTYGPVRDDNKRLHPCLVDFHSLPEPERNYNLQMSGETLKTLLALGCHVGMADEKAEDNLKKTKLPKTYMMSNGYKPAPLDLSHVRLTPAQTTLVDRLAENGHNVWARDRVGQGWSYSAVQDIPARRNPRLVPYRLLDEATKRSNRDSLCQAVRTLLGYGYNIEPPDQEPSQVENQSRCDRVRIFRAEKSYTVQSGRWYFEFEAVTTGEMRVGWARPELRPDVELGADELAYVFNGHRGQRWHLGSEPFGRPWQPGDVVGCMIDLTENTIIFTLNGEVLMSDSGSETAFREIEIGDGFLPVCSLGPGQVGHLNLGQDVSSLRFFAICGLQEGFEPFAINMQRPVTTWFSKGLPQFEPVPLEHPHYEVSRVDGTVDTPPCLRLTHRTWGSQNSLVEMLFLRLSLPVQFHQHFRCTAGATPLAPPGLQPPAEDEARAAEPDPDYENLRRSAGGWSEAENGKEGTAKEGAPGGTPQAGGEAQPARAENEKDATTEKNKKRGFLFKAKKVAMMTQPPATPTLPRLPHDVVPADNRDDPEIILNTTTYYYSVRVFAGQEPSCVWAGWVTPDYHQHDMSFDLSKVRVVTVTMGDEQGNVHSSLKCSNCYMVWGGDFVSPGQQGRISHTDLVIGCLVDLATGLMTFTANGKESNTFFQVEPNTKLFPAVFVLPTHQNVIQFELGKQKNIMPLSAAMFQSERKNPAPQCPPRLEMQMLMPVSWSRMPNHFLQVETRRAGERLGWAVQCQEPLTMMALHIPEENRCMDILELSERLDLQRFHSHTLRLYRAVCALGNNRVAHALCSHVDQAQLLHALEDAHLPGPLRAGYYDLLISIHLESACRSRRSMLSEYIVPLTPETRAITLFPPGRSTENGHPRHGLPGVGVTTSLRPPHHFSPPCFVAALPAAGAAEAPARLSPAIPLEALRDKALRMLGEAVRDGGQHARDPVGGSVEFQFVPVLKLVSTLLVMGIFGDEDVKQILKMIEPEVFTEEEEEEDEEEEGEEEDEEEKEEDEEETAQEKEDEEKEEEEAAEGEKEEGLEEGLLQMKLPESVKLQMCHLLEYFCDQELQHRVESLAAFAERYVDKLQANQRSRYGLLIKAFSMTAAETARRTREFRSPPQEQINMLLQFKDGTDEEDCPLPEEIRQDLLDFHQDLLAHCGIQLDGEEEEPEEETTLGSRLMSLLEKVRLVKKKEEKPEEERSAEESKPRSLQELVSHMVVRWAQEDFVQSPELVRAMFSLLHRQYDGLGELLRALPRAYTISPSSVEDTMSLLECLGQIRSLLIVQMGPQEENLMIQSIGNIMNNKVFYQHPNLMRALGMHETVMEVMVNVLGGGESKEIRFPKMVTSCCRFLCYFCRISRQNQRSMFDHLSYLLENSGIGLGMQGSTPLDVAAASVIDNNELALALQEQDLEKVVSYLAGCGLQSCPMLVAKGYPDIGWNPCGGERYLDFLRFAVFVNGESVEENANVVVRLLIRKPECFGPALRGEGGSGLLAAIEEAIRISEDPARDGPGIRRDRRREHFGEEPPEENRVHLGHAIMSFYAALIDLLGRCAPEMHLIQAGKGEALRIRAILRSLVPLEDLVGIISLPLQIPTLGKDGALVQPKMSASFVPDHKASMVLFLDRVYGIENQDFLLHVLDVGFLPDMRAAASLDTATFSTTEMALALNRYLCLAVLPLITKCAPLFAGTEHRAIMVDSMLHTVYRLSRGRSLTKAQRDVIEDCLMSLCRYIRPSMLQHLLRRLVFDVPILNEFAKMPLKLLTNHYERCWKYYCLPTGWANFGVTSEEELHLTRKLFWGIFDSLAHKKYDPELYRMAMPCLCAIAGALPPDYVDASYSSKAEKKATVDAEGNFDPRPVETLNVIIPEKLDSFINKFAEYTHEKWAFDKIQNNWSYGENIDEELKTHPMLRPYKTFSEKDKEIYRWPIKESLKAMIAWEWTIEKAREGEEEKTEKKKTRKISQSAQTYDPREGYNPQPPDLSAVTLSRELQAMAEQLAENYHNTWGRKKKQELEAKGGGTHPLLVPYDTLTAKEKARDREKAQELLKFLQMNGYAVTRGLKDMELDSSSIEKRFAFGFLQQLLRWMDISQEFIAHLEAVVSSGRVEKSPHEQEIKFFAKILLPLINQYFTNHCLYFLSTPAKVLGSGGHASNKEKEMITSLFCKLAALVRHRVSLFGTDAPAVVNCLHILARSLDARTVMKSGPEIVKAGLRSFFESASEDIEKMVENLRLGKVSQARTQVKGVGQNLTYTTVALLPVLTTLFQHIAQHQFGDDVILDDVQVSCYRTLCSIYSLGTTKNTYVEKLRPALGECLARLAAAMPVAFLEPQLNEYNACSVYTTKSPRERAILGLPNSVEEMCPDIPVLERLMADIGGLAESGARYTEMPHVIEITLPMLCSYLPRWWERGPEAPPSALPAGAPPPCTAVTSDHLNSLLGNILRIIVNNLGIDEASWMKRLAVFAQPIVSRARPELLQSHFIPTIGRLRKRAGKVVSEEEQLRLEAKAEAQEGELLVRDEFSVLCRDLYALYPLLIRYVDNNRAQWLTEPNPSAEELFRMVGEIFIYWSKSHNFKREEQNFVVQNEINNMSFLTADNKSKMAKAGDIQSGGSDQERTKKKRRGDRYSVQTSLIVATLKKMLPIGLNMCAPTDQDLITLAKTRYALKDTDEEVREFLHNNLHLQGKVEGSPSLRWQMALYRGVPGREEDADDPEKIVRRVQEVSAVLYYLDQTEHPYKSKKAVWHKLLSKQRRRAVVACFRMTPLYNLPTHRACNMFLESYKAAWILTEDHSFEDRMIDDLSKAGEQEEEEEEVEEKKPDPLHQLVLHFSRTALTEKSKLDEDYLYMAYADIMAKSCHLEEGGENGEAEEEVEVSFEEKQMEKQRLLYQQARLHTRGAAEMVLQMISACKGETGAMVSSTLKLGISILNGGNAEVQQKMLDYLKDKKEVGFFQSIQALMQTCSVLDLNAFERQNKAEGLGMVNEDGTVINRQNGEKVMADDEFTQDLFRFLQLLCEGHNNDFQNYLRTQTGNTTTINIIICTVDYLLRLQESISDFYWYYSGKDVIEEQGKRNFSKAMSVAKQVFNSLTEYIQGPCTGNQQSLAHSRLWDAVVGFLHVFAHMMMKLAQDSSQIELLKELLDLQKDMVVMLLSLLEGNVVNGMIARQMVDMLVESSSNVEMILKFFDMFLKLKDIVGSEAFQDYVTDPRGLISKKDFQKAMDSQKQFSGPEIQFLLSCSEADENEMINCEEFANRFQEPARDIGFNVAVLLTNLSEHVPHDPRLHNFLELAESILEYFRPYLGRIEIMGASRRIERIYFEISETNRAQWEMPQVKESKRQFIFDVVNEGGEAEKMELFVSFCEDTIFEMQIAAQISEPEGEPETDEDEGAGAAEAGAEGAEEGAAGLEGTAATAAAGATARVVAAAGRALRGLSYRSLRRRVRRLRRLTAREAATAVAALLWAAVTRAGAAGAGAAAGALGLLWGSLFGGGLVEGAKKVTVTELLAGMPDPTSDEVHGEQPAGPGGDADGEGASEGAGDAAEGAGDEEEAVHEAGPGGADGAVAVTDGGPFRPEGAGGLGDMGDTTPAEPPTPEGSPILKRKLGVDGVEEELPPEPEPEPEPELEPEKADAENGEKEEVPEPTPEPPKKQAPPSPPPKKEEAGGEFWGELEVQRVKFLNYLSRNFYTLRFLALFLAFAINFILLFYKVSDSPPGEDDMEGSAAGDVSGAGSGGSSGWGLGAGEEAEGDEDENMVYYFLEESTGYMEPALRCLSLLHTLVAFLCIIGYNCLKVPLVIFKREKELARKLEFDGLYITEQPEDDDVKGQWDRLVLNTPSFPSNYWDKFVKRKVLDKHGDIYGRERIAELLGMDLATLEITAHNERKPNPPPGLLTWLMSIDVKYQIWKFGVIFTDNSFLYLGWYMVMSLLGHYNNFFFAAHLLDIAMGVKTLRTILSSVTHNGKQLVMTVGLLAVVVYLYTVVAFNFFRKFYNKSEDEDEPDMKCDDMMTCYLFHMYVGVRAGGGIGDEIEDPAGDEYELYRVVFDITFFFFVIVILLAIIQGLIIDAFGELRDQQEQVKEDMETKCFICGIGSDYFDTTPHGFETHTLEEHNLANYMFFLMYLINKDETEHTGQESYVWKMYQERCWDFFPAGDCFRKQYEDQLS

One may read the Kd as the concentration at which binding is half-saturated. FKBP12 (from UniProt P62942): the dissociation constant Kd in the data set with RyR1 was 100 nM.

As to FKBP12 (from UniProt P62943), the dissociation constant Kd in data set [1] was 2.6 nM.
